The numbers were not newly measured in article PMC6886688, which cites them from elsewhere.

The test system of the data set is Tyr134.

As usually defined, the pKa is the negative logarithm of the acid dissociation constant. Consider “Cellular retinoic acid binding protein 2 (CRABP2) (Homo sapiens (inferred; not stated in the article))”, for which the pKa is given as around 7.6.
